Data: patent US20240043537A1 (MacroGenics, published 2024)
Changes are numbered by the printed parent chain.

T1: soluble human CD123, His-tagged (human, UniProt P26951 19-305)
T1 construct: Captured on an anti-PentaHis surface; also called soluble CD123; not shown: His tag
T1 sequence (looked up): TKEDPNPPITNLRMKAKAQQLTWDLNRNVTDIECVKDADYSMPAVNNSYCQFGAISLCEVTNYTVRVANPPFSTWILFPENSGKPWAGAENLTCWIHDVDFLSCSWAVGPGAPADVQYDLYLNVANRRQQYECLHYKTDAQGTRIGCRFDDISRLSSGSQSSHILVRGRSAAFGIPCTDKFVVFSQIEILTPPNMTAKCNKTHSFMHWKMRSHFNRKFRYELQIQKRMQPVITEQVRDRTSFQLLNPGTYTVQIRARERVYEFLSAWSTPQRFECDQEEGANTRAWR

B1: T-CD123-WT (other)
chain 1: DFVMTQSPDSLAVSLGERVTMSCKSSQSLLNSGNQKNYLTWYQQKPGQPPKLLIYWASTRESGVPDRFSGSGSGTDFTLTISSLQAEDVAVYYCQNDYSYPYTFGQGTKLEIKGGGSGGGGEVQLVESGGGLVQPGGSLRLSCAASGFTFSTYAMNWVRQAPGKGLEWVGRIRSKYNNYATYYADSVKDRFTISRDDSKNSLYLQMNSLKTEDTAVYYCVRHGNFGNSYVSWFAYWGQGTLVTVSSGGCGGGEVAALEKEVAALEKEVAALEKEVAALEKGGGDKTHTCPPCPAPEAAGGPSVFLFPPKPKDTLMISRTPEVTCVVVDVSHEDPEVKFNWYVDGVEVHNAKTKPREEQYNSTYRVVSVLTVLHQDWLNGKEYKCKVSNKALPAPIEKTISKAKGQPREPQVYTLPPSREEMTKNQVSLWCLVKGFYPSDIAVEWESNGQPENNYKTTPPVLDSDGSFFLYSKLTVDKSRWQQGNVFSCSVMHEALHNHYTQKSLSLSPGK
chain 2: QAVVTQEPSLTVSPGGTVTLTCRSSTGAVTTSNYANWVQQKPGQAPRGLIGGTNKRAPWTPARFSGSLLGGKAALTITGAQAEDEADYYCALWYSNLWVFGGGTKLTVLGGGGSGGGGEVQLVQSGAELKKPGASVKVSCKASGYTFTDYYMKWVRQAPGQGLEWIGDIIPSNGATFYNQKFKGRVTITVDKSTSTAYMELSSLRSEDTAVYYCARSHLLRASWFAYWGQGTLVTVSSGGCGGGKVAALKEKVAALKEKVAALKEKVAALKE
heavy: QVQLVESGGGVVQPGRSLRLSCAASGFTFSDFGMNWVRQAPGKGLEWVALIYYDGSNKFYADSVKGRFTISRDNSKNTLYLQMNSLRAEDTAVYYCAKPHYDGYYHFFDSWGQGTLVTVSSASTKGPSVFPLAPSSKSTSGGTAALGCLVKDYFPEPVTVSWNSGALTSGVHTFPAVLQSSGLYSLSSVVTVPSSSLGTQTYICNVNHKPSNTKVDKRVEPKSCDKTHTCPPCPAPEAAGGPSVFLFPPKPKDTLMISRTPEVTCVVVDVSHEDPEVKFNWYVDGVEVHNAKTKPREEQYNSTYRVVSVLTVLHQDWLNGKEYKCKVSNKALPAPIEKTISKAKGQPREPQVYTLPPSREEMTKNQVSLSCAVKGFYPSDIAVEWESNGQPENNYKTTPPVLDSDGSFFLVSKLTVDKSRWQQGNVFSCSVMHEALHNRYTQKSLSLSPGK
light: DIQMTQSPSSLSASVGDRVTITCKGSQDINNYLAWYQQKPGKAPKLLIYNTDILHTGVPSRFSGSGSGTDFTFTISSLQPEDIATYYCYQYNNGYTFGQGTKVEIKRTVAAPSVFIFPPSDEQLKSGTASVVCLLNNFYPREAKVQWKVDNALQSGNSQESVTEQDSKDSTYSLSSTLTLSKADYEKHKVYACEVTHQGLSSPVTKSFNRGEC
notes: Four-chain trivalent CD123 x CD3 x CD8 molecule with Fc; also called CD123 mAb 1 x CD3 mAb 1 x TRX2 TRIVALENT-type molecule
B2: CD123-M13 (bispecific antibody)
chain 1: B1 chain 1 with Y235E
chain 2: B1 chain 2
chain 3: not shown
notes: Three-chain diabody with Fc; also called CD123 x CD3 mAb 1 M13 DART-B-type diabody
B3: CD123-M19 (bispecific antibody)
chain 1: B1 chain 1 with G223K, F225I
chain 2: B1 chain 2
chain 3: not shown
notes: Three-chain diabody with Fc; also called CD123 x CD3 mAb 1 M19 DART-B-type diabody
B4: CD123-M17 (bispecific antibody)
chain 1: B1 chain 1 with Y153T
chain 2: B1 chain 2
chain 3: not shown
notes: Three-chain diabody with Fc; also called CD123 x CD3 mAb 1 M17 DART-B-type diabody
B5: CD123-WT (bispecific antibody)
chain 1: B1 chain 1
chain 2: B1 chain 2
chain 3: not shown
notes: Three-chain diabody with Fc; also called CD123 x CD3 mAb 1 DART-B-type diabody
B6: T-CD123-M18 (other)
chain 1: B1 chain 1 with A154G
chain 2: B1 chain 2
heavy: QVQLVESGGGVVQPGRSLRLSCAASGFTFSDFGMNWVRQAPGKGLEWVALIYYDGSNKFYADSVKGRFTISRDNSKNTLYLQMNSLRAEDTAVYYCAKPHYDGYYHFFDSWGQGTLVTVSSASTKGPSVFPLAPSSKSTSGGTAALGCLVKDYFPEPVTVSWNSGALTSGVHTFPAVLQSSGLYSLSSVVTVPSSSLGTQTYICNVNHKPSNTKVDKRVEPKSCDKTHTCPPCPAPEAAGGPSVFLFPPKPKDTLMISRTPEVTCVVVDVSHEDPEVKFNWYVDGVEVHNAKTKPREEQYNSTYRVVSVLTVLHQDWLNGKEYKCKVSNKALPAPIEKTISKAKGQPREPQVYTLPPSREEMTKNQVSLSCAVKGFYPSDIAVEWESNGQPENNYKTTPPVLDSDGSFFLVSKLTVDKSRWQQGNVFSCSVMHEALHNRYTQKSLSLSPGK
light: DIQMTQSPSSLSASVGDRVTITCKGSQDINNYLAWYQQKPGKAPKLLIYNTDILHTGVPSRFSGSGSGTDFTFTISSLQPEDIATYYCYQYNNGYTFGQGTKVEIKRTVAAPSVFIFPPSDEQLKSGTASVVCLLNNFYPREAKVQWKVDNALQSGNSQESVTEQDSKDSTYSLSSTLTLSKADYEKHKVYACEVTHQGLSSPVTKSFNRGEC
notes: Four-chain trivalent CD123 x CD3 x CD8 molecule with Fc; also called CD123 mAb 1 x CD3 mAb 1 M18 x TRX2 TRIVALENT-type molecule
B7: T-CD123-M2 (other)
chain 1: B1 chain 1 with G223K, S231T
chain 2: B1 chain 2
heavy: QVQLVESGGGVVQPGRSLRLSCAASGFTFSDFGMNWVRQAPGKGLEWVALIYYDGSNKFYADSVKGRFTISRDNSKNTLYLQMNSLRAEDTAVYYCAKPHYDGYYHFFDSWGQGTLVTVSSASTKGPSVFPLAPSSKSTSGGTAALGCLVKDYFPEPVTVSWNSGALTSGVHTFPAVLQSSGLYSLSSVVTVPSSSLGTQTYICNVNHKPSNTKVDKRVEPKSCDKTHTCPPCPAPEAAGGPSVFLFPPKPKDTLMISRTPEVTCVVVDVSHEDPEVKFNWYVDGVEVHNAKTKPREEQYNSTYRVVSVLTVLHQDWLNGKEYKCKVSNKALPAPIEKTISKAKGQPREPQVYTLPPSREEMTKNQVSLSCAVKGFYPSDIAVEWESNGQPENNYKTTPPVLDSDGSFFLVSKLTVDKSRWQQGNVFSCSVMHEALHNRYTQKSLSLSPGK
light: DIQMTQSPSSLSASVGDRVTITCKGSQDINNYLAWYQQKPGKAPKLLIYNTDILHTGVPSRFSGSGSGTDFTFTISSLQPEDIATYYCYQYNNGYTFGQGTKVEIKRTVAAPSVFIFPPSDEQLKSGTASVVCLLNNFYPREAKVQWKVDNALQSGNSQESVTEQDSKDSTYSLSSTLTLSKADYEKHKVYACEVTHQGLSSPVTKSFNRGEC
notes: Four-chain trivalent CD123 x CD3 x CD8 molecule with Fc; also called CD123 mAb 1 x CD3 mAb 1 M2 x TRX2 TRIVALENT-type molecule
B8: CD123-M1 (bispecific antibody)
chain 1: B1 chain 1 with S231T
chain 2: B1 chain 2
chain 3: not shown
notes: Three-chain diabody with Fc; also called CD123 x CD3 mAb 1 M1 DART-B-type diabody
B9: CD123-M2 (bispecific antibody)
chain 1: B1 chain 1 with G223K, S231T
chain 2: B1 chain 2
chain 3: not shown
notes: Three-chain diabody with Fc; also called CD123 x CD3 mAb 1 M2 DART-B-type diabody
B10: CD123-M18 (bispecific antibody)
chain 1: B1 chain 1 with A154G
chain 2: B1 chain 2
chain 3: not shown
notes: Three-chain diabody with Fc; also called CD123 x CD3 mAb 1 M18 DART-B-type diabody
B11: T-CD123-M1 (other)
chain 1: B1 chain 1 with S231T
chain 2: B1 chain 2
heavy: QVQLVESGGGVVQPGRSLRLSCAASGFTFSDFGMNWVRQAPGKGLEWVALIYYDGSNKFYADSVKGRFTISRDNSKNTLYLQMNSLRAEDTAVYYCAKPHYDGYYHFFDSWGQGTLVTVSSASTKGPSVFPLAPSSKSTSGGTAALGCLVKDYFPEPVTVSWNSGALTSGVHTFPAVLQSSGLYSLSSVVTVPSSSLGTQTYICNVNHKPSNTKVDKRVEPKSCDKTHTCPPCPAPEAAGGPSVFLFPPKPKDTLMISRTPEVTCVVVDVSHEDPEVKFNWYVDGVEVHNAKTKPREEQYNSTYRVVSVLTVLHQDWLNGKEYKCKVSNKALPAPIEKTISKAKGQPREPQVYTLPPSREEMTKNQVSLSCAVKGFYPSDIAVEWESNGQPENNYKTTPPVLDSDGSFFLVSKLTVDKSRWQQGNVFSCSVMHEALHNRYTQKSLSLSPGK
light: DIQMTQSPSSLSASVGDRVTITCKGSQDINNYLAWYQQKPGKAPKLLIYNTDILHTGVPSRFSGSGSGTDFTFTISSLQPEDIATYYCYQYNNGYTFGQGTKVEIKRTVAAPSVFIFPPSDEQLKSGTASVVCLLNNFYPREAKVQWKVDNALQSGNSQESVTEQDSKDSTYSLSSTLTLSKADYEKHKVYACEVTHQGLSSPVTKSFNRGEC
notes: Four-chain trivalent CD123 x CD3 x CD8 molecule with Fc; also called CD123 mAb 1 x CD3 mAb 1 M1 x TRX2 TRIVALENT-type molecule

Assays:
CD123 on MOLM-13 cells [1] = biological target: T2, CD123 on MOLM-13 cells (UniProt P26951 19-378, limits assumed); test: flow cytometry on CD123-expressing MOLM-13 cells, MFI (geo mean) against concentration (nM)
T2 construct: whole, on cells; also called CD123-expressing MOLM-13 cells
Target sequence in this assay (P26951 19-378 limits assumed): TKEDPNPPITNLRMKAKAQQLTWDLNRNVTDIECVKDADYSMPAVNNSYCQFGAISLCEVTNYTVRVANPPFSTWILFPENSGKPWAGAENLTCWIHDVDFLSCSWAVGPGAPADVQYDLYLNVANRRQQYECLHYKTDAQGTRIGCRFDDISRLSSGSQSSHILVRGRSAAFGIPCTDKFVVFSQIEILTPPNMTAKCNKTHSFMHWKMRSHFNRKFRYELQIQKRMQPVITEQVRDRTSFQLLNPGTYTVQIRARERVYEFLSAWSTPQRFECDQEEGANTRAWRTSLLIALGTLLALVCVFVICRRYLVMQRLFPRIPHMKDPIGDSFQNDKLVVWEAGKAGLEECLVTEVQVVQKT

cyno CD3 = cyno CD3 (cynomolgus, UniProt Q95LI5 22-117); test: SPR (BIAcore), diabody 6.25-400 nM over immobilized cyno CD3, 1:1 Langmuir fit
Method: (§1) In additional studies the ability of CD123-binding diabodies: CD123-WT, CD123-M13, CD123-M17 and CD123-M19 to bind to human CD3 and cynomolgus CD3 was also evaluated using BIAcore®. […] Table 15B presents the calculated kₐ, kd and KD.

soluble human CD3 [2] = biological target: T3, soluble human CD3 (human, UniProt P07766 23-126); test: SPR (BIAcore), diabody 6.25-400 nM over immobilized human CD3, 1:1 Langmuir fit
Method: as §1

soluble human CD3 [3] = biological target: T3, soluble human CD3; test: SPR (BIAcore), diabody over immobilized soluble human CD3, 1:1 fit
Method: (§2) The ability of the CD123-binding diabodies: CD123-WT, CD123-M1, CD123-M2 and CD123-M18 to bind to human CD3 and CD123 was also evaluated using BIAcore®. […] Table 14 presents the calculated kₐ, kd and KD from these studies.

[4] = biological target: T1, soluble human CD123, His-tagged; test: SPR (BIAcore), diabody over His-tagged CD123 captured on anti-PentaHis, 1:1 fit
Method: as §2

CD8 on CD8+ T-cells = biological target: T4, CD8 on CD8+ T-cells (UniProt P01732 22-235; P10966 22-210); test: flow cytometry on CD8+ T-cells, MFI (geo mean) against concentration (nM); CD123-WT is the diabody comparator without a CD8-Binding Domain
T4 construct: whole, on cells; also called CD8 expressing CD8+ T-cells

CD123 on MOLM-13 cells [5] = biological target: T2, CD123 on MOLM-13 cells; test: Flow cytometry on MOLM-13 cells; detection with biotinylated anti-E/K-coil antibody and streptavidin-PE
Method: FIG. 9A-9B show the ability of DART-B-type diabodies to bind to Disease Antigens. […] Binding was detected using biotinylated antibody specific for the diabodies' E/K coils and streptavidin-phycoerythrin (PE).
The ability of such diabodies to bind to their respective Disease Antigen (i.e., CD123 or 5T4) on the surface of MOLM-13 leukemia (CD123) or A-498 kidney carcinoma (5T4) target cancer cells was assessed using FACS. Briefly, cells were incubated with the diabody molecules (in FACS buffer containing 10% human AB serum) in microtiter plates. The cells were washed and incubated with biotin-conjugated mouse anti-EK-coil antibody that recognizes the E-coil/K-coil (EK) Heterodimer-Promoting Domain of the diabodies mixed with streptavidin-phycoerythrin.

Sequence of cyno CD3 (Q95LI5 22-117): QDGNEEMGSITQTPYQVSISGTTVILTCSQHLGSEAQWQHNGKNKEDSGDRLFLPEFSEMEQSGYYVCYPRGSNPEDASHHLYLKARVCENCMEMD
T3 sequence (P07766 23-126): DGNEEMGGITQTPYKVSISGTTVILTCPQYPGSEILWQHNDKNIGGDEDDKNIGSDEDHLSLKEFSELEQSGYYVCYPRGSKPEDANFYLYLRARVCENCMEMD
T4 sequence (P01732 22-235, chain 1 of 2): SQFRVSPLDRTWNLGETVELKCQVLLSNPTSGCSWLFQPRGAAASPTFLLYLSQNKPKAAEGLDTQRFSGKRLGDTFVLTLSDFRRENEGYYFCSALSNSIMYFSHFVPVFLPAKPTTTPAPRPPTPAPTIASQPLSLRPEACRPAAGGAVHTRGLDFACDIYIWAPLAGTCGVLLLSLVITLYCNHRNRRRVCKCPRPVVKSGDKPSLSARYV
T4 sequence (P10966 22-210, chain 2 of 2): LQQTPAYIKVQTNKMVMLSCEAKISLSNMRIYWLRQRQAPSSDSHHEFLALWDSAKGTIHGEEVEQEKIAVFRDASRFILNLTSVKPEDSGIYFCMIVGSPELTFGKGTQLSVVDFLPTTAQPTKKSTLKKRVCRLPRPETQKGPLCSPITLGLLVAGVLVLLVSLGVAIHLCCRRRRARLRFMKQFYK

Binder | binding result (CD123 on MOLM-13 cells [1]) | Kd (cyno CD3) [nM] | Kd (soluble human CD3 [2]) [nM] | Kd (soluble human CD3 [3]) [nM] | Kd [4] [nM] | other results
B1 | binds | – | – | – | – | –
B2 | – | 580 | 458 | – | – | –
B3 | – | 227 | 218 | – | – | –
B4 | – | 329 | 290 | – | – | –
B5 | – | 39 | 52 | 67 | 2 | binding result (CD8 on CD8+ T-cells): no binding (tested: 100 nM)
B6 | binds | – | – | – | – | –
B7 | binds | – | – | – | – | –
B8 | – | – | – | 842 | 1.2 | EC50 (read off the curve) (CD123 on MOLM-13 cells [5]): ~2 nM
B9 | – | – | – | 108 | 1.1 | –
B10 | – | – | – | 593 | 2.3 | –
B11 | binds | – | – | – | – | –
